Kd data for 1 sequence are collected here from article PMC4267639, “The Mtr4 ratchet helix and arch domain both function to promote RNA unwinding”.

A value given as a limit tells only on which side of the number the result lay.

Assay in all cases: fluorescence anisotropy
Common to all, as to conditions: FA: 40 mM MOPS pH 6.5, 100 mM NaCl, 0.5 mM MgCl2, 5% glycerol, 0.01% NP-40 substitute, 2 mM DTT, 60 nM RNA, 30 C; EMSA conditions not in material

In data set [1] the target is T1, Mtr4 R1030A-archless R1030A (Saccharomyces cerevisiae) (UniProt P47047).
T1 sequence: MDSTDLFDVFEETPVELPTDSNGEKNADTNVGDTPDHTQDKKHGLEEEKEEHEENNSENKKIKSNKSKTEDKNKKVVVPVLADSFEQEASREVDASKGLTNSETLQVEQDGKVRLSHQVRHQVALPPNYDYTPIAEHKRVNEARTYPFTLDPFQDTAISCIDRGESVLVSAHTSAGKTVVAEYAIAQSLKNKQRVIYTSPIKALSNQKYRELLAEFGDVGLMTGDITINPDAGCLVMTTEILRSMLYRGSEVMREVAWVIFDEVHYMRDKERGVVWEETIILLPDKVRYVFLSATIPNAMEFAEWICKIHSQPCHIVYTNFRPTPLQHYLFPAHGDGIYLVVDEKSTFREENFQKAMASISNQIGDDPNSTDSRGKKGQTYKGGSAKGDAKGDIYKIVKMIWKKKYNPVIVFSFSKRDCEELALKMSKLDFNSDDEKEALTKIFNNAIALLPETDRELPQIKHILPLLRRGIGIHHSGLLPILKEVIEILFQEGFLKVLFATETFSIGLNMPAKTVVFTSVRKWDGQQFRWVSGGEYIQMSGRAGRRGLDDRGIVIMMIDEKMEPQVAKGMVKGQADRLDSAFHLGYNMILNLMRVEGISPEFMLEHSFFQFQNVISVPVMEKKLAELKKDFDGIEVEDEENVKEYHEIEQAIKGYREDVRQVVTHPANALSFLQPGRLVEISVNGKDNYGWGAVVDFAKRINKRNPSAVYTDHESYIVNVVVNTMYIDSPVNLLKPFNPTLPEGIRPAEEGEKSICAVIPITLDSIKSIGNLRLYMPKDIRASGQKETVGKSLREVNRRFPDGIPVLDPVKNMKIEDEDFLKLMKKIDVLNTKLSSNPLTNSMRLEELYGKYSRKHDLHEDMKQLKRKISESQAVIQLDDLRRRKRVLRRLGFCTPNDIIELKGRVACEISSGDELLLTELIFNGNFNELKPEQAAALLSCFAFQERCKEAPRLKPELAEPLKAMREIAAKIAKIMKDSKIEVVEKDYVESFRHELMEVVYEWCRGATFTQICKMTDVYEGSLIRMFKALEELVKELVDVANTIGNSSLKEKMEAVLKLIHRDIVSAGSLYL

The target of data set [2] is T2, Mtr4 archless (Saccharomyces cerevisiae) (UniProt P47047).
T2 sequence: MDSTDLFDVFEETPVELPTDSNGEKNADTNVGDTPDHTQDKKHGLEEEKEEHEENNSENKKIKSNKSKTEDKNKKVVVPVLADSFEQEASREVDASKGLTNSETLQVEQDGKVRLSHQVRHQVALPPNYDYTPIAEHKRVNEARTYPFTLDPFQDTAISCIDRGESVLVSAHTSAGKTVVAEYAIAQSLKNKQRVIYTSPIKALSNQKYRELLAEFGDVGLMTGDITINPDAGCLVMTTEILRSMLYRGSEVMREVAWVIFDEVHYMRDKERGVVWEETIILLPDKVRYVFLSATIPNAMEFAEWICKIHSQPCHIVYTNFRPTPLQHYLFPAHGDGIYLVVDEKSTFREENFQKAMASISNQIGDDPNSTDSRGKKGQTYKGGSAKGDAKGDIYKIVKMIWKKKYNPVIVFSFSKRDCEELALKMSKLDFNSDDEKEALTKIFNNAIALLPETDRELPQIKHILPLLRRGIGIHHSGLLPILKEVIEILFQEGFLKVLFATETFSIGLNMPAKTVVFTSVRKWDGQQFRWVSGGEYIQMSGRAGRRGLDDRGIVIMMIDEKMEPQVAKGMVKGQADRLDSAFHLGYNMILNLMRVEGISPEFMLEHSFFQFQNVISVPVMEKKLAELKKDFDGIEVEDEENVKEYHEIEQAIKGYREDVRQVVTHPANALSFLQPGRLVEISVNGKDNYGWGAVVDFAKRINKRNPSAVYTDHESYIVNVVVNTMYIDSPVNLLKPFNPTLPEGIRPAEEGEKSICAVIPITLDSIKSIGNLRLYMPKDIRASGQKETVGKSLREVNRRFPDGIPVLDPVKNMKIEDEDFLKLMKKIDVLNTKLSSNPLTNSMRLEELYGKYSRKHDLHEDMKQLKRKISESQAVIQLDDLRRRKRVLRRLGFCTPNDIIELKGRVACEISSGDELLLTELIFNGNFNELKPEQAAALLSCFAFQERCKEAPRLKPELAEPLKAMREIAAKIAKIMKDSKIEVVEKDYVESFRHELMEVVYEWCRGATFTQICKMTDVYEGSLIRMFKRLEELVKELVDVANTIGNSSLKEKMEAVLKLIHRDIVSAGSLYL

In data set [3] the target is T3, Mtr4 E1033A-archless E1033A (Saccharomyces cerevisiae) (UniProt P47047).
T3 sequence: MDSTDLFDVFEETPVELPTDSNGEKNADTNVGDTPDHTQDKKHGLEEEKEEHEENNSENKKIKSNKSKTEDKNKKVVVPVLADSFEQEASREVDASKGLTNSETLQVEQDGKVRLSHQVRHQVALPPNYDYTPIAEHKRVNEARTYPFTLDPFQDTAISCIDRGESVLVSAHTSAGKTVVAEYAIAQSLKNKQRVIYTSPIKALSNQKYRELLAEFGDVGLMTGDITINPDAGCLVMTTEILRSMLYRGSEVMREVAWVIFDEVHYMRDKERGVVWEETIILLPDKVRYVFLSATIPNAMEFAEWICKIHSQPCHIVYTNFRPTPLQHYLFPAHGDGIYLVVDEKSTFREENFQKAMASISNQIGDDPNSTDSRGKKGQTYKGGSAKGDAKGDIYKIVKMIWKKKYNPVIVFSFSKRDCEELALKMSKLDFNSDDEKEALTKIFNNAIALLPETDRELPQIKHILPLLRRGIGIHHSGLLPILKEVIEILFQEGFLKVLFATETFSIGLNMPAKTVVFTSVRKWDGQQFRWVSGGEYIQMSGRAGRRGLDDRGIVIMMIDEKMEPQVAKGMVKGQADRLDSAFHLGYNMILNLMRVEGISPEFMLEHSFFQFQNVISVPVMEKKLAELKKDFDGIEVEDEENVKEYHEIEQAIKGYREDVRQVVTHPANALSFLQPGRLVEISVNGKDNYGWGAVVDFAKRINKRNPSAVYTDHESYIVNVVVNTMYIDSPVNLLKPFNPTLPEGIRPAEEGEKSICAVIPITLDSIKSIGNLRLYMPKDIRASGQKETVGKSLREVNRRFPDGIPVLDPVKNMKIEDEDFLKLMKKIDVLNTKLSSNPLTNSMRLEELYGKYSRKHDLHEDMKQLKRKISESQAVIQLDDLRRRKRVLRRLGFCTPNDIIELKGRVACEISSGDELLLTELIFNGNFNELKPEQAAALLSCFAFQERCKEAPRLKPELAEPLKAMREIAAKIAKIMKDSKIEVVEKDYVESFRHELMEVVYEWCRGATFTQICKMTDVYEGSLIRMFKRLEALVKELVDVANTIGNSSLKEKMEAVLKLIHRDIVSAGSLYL

As usually defined, the Kd is the free concentration of one partner at which half of the binding sites on the other are occupied at equilibrium, for simple one-to-one binding. On to “GCGUCUUUACGGUGCUUAAAAA / AGCACCGUAAAGACGC [poly(A) substrate R22A/R16, fluorescein]”, for which the Kd in data set [1] was greater than 10 µM; in data set [2] it was 4.5 µM; in data set [3], 4.8 µM.
